From US10005846B2, “Anti-transglutaminase 2 antibodies” (MEDICAL RESEARCH COUNCIL TECHNOLOGY, priority 2012, dated 2018)
Numbering of substitutions follows the chain as printed. Blank lines part the entries; values can stand above or below the molecule they belong to.

Columns and labels:
WI-38 cells = assay: Scratch wound assay in WI-38 cells; type: cell-based, human; conditions: serum free media; Cytochalasin D 0.1 μM, R281 100 μM, Z DON 10 μM and 100 μM, Cub7402 5 μg/ml
Protocol: WI-38 cells (normal human lung fibroblasts ATCC cat#CCL-75) were plated in a 96 well Image Lock plate (Essen cat#4379) at 2×10^4/well in αMEM media (Life Technologies cat#32561) with 10% FBS and grown O/N to >97% confluence. Cells were washed 2× with αMEM media without serum and a scratch wound was generated using an Essen Wound Maker and the manufacturers protocol. The media was removed and replaced with 95 μl/well serum free media. Controls and test antibodies were added to the wells. The plate was placed in an Essen Incucyte and the closure of the wound was analysed using the scratch wound protocol.
Cytochalasin D was used as an assay control at 0.1 μM. R281, a small molecule non-specific transglutaminase inhibitor, was tested at 100 μM. Z DON, a peptide non reversible transglutaminase inhibitor was tested at 10 μM and 100 μM. The commercially available TG2 antibody Cub7402 (ABcam cat#ab2386) was tested at 5 μg/ml. Antibodies of the invention were tested on at least three occasions at various concentrations as indicated. In all experiments controls were Cytochalasin D at 0.1 uM and ZDON at two concentrations to show a dose dependant effect.

Cynomolgus TG2 = assay: Biacore (SPR) affinity, cynomolgus TG2; type: binding, cynomolgus monkey; conditions: +Ca^2+ (1 mM CaCl2 running buffer; includes rows without a Ca mark)
Protocol: (§1) Recombinant human TG2 was obtained from Zedira GmbH (cat. no.: T002). Recombinant cynomolgus monkey TG2 was obtained from Trenzyme. Surface plasmon resonance (SPR) was measured on a Biacore T200 instrument (GE Healthcare). CM5 chips (GE Healthcare cat. no.: BR-1006-68) were coated with monoclonal mouse anti-human IgG1 (Fc) (MAH) antibody (GE Healthcare cat. no.: BR-1008-39) by amine-coupling as described in the manufacturers instructions. HBS-EP+ buffer (0.01 M HEPES, 0.15 M NaCl, 3 mM EDTA, 0.05% v/v Surfactant P20) and HBS-P+ buffer (0.01 M HEPES, 0.15 M NaCl, 0.05% Surfactant P20) were purchased from GE Healthcare as 10× stocks (cat. nos.: BR-1006-69 and BR-1006-71). Calcium Chloride solution was obtained from Sigma Aldrich (cat. no.:21115).
(§2) The method employed to determine the affinity of the anti-TG2 antibodies involved the capture of the chimeric or humanised antibodies on a MAH coated CM5 chip, followed by the injection of a series of TG2 samples in running buffer. The running buffer was 1×HBS-P+ containing 1 mM CaCl2, or 1×HBS-EP+ for calcium-free experiments. Antibody capture was carried out for a contact time of 120 seconds at a flow rate of 10 μl/min resulting in the capture of approximately 40-80 RU. TG2 was injected over the immobilised antibody at concentrations ranging from 25 nM to 400 nM with a contact time up to 600 seconds at a flow rate of 30 μl/min. Dissociation of TG2 was typically measured for up to 5400 seconds (1.5 hours). Regeneration of the chip was then performed using 3 M MgCl2, for a contact time of 60 seconds at a flow rate of […], followed by a 300 s stabilisation period before the next sample. For each of human and cynomolgus monkey TG2, at least 5 injections at a variety of concentrations were performed in at least two separate experiments.
(§3) Kinetic data were exported from the Biacore T200 Evaluation Software and analysed using GraphPad Prism, where the association phases and dissociation phases were analysed separately using a one phase association model and one-phase exponential decay model respectively. Association rates (kon) were calculated for each curve individually, and dissociation rates (koff) values from the long dissociation phase data collected. Where koff values were calculated to be <1×10^−5 s^−1, values were set at 1×10^−5 for analysis, as rates slower than this could not be estimated accurately. Values for kon and koff are presented in the tables below as the mean of the individual calculated values for each antibody for each TG2 species from multiple concentrations +/−1 standard deviation. KD values are calculated as mean koff/mean kon.

human TG2 [1] = target: T1, human TG2 (Homo sapiens, UniProt P21980); assay: Fluorescence-based transglutaminase assay (dansylated lysine into N,N-dimethylated casein), human TG2; type: biochemical; parameters: purchased Zedira GmbH T002; conditions: 1 nM human TG2
T1 sequence (P21980 1-687): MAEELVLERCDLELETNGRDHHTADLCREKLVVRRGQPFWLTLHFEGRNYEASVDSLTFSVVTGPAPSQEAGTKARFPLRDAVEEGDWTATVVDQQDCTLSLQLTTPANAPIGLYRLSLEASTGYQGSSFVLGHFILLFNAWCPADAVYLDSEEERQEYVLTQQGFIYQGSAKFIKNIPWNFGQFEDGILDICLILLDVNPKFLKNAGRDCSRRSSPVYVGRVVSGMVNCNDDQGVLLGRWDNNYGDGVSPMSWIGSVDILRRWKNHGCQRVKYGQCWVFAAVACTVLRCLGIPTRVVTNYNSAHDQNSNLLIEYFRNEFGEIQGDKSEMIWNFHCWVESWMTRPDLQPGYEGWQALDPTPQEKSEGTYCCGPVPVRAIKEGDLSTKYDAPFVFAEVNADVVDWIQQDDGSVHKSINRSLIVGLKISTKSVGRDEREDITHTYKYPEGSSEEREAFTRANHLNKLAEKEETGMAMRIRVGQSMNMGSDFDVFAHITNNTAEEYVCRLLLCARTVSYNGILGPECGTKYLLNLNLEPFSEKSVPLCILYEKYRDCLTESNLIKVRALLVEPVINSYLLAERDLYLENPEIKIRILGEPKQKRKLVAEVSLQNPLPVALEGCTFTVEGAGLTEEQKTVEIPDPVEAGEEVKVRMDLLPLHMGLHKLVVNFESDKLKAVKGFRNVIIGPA
Protocol: Transglutaminase activities of purified human (Zedira) or cynomogolus monkey TG2 enzymes (Trenzyme) were measured by incorporation of dansylated lysine K×D (Zedira) into N,N-dimethylated casein (DMC, Sigma). Human or cynomogolus monkey TG2 were diluted in transamidation buffer (25 mM HEPES pH 7.4 containing 250 mM NaCl, 2 mM MgCl2, 5 mM CaCl2, 0.2 mM DTT and 0.05% v/v Pluronic F-127) to 1 nM and 10 nM respectively and mixed with various concentrations of protein-A purified murine, chimeric or humanised TG2 antibodies for 180 min at room temperature in 384-well black microtiter plates (Corning). Reactions were initiated by addition of DMC and K×D to a final concentration of 10 uM and 20 uM respectively and a final reaction volume of 30 ul, and allowed to proceed at RT for 180 min and the increase in fluorescence (RFU) (excitation at 280 nm, emission 550 nm) monitored using a Tecan Safire^2 plate reader. Data were normalised to percentage activity where % activity=(RFU test antibody−RFU low controls)/RFU high controls−RFU low controls)×100, where low controls contained all components except enzyme and high controls contained all components except antibody.
Antibody dose response curves were plotted using GraphPad prism software and fitted using a 4-parameter logistical model to return IC50 and other statistical parameters. The results are illustrated in FIGS. 29 to 33.

human TG2 [2] = target: T1, human TG2; assay: Biacore (SPR) affinity, human TG2; type: binding; parameters: purchased Zedira GmbH T002; conditions: +Ca^2+ (1 mM CaCl2 running buffer; includes rows without a Ca mark)
Protocol: as §1, §2, §3

human TG2 [3] = target: T1, human TG2; assay: ELISA assay for TG2 binding, human TG2; parameters: purchased Zedira GmbH T002
Protocol: Antibody binding to human and cynomolgus monkey TG2 was determined in an ELISA assay. Clear polystyrene “Maxisorp” 96-well plates (Nunc) were coated with 50 ng purified human or cynomogulus monkey TG2 in 50 μl 0.05 M carbonate-bicarbonate buffer pH 9.6 at 4° C. overnight. Control wells were coated with 50 μl 100 μg/ml bovine serum albumin (BSA). Plates were washed 3× with 300 μl phosphate-buffered saline pH7.4 (PBS) containing 0.1% Tween 20 (PBST) and blocked with 300 μl 3% w/v Marvel skimmed milk in PBS for 1 hour at room temperature. After 3× wash with PBST, 50 μl protein-A purified chimeric or humanised anti-TG2 antibodies or human IgG1 kappa isotope control antibody or CUB7402 (Abcam) were serially diluted 4-fold from a top concentration of 50 nM in PBS, and added to the plate in duplicate. […] After 3× washes with PBST, the plates were developed with 50 μl TMB substrate (Sigma) for 5 min at room temperature before stopping the reaction with 25 μl 0.5M H2SO4 and reading absorbance at 450 nm in a microtiter plate reader (BioTek EL808). Dose response curves were analysed and EC50 values and other statistical parameters determined using a 4-parameter logistical fit of the data (GraphPad Prism).

koff (human TG2 [2]): <10^−5 s^−1 | kon (human TG2 [2]): 320000 M⁻¹ s⁻¹
B1: cDC001: chimeric DC1 antibody: murine variable regions, human IgG1 and human kappa (antibody, V domains shown)
VH: EVQLVESGGGLVKPGGSLKLSCAASGFTLSTHAMSWVRQTPEKRLEWVATISSGGRSTYYPDSVKGRFTISRDNVKNTLYLQLSSLRSEDTAVYFCARLISTYWGQGTTLTVSS
VL: DITMTQSPSSIYASLGERVTITCKASQDINSYLTWFQQKPGKSPKILIYLVNRLVDGVPSRFSGSGSGQDYALTISSLEYEDMGIYYCLQYDDFPYTFGGGTKLEIK
effect on wound closure (WI-38 cells): inhibited wound closure | koff (Cynomolgus TG2): <10^−5 s^−1 | kon (Cynomolgus TG2): 420000 M⁻¹ s⁻¹ | inhibition of human TG2 transamidation (in words) (human TG2 [1]): potent inhibition of TG2 activity in the low nanomolar range

ELISA binding to human TG2 (in words) (human TG2 [3]): comparable EC50 values | koff (human TG2 [2]): <10^−5 s^−1 | kon (human TG2 [2]): 240000 M⁻¹ s⁻¹
B2: hBB001BB: humanised BB7 antibody (heavy chain hBB001HB, light chain hBB001KB by name) (antibody, V domains shown)
VH: EVQLLESGGGLVQPGGSLRLSCAASGIIFSSSAMSWVRQAPGKGLEWVATISSGGRSTYYPDSVKGRFTVSRDSSKNTLYLQMNSLRAEDTAVYYCAKLISPYWGQGTLVTVSS
VL: DIKMTQSPSSLSASVGDRVTITCKASQDINSYLTWFQQKPGKAPKTLIYLTNRLMDGVPSRFSGSGSGQEFLLTISSLQPEDFATYYCLQYVDFPYTFGQGTKVEIK
koff (Cynomolgus TG2): 3.7e-05 s⁻¹ | kon (Cynomolgus TG2): 270000 M⁻¹ s⁻¹ | inhibition of human TG2 transamidation (in words) (human TG2 [1]): potent inhibition of TG2 activity in the low nanomolar range

ELISA binding to human TG2 (in words) (human TG2 [3]): comparable EC50 values | koff (human TG2 [2]): 2.4e-05 s⁻¹ | kon (human TG2 [2]): 200000 M⁻¹ s⁻¹
B3: hAB004: humanised AB1 antibody; heavy chain version RHA with light chain version RKE (antibody, V domains shown)
VH: B2 VH with I27F, I28T, A49S, S53V, R56G, S57K, V70I, S74N, P102L
VL: EIVLTQSPSSLSASVGDRVTITCKASQDINSYLTWYQQKPGKAPKLLIYRTNRLFDGVPSRFSGSGSGTDFFFTISSLQPEDFGTYYCLQYDDFPYTFGGGTKLEIK
koff (Cynomolgus TG2): 1.8e-05 s⁻¹ | kon (Cynomolgus TG2): 160000 M⁻¹ s⁻¹ | inhibition of human TG2 transamidation (in words) (human TG2 [1]): potent inhibition of TG2 activity in the low nanomolar range

koff (human TG2 [2]): <10^−5 s^−1 | kon (human TG2 [2]): 190000 M⁻¹ s⁻¹
B4: hAB005: humanised AB1 antibody; heavy chain version RHA with light chain version RKJ (antibody, V domains shown)
VH: B2 VH with I27F, I28T, A49S, S53V, R56G, S57K, V70I, S74N, P102L
VL: B2 VL with K3Q, T46S, L50R, M55F, Q69T, E70D, L72F, V92D
effect on wound closure (WI-38 cells): inhibited wound closure | koff (Cynomolgus TG2): 3.4e-05 s⁻¹ | kon (Cynomolgus TG2): 140000 M⁻¹ s⁻¹ | inhibition of human TG2 transamidation (in words) (human TG2 [1]): potent inhibition of TG2 activity in the low nanomolar range
